Assay results published in patent publication US20250355001A1 (GTINVENT, published 2025).
Substitutions are numbered along the chain they refer to. Where no end group is shown, it is not given here. The star is where a group is joined. Biotin = O=C1N[C@H]2[C@H](CS[C@H]2CCCCC(=O)*)N1

How the values were obtained:
aggregated dGAE [1] = molecular target: T1, aggregated dGAE (human, UniProt P10636 614-708, limits assumed); assay: ELISA, direct immobilisation, SDS + Triton treated dGAE aggregates
T1 construct: dGAE aggregated in vitro with DTT, 700 rpm, 37 C, 24 h; also called dGAE aggregates; dGAE agg

dGAE (tau 297-391) [2] = molecular target: T2, dGAE (tau 297-391) (human, UniProt P10636 614-708); assay: sandwich ELISA, 423 mAb capture, dGAE titrated, scAb at 10 µg/ml [D00039 Figure 34 cont. F]
T2 construct: monomer; also called dGAE95

aggregated dGAE [3] = molecular target: T1, aggregated dGAE; assay: sandwich ELISA, S1D12 mAb capture, SDS + Triton treated dGAE aggregates
Description: (§1) For aggregation, 1000 μL 100 μM dGAE+10 μL 10 mM DTT was added to a ‘LoBind’ microfuge tubes and agitated at 700 RPM/37° C. for 24 hours. Resulting sample centrifuged at 17,000×g/4° C. for 60 min and supernatant discarded to remove left over monomer. Pellet resuspended in half the original volume for future experiments and hereafter referred to as ‘aggregates’. 1 μl of aggregates was added to 1 ml of PBS and SDS was added to a final concentration of 1% (w/v). This was left to incubate on lab bench for 1 h with gentle agitation every 15 minutes. In order to neutralize the SDS effect on ELISA, Triton X-100 added to a final concentration of 3% (v/v) and mixed gently by pipetting to prevent any bubble formation. […] Similarly aggregates treated with only SDS or Triton X-100, untreated aggregates, dGAE monomers treated with only SDS or SDS+Titon X-100 were also added to designated wells as controls. All samples were then double diluted across the plate in final volumes of 100 μl. The final column was left with no protein to act as a blank.

[4] = molecular target: T3, full length human tau protein 2N4R (hT40) (human, UniProt P10636 1-758); assay: SPR, summary table
T3 construct: recombinant; also called T441
T3 sequence (P10636 other isoform, or with tags, fused parts or gaps limits assumed): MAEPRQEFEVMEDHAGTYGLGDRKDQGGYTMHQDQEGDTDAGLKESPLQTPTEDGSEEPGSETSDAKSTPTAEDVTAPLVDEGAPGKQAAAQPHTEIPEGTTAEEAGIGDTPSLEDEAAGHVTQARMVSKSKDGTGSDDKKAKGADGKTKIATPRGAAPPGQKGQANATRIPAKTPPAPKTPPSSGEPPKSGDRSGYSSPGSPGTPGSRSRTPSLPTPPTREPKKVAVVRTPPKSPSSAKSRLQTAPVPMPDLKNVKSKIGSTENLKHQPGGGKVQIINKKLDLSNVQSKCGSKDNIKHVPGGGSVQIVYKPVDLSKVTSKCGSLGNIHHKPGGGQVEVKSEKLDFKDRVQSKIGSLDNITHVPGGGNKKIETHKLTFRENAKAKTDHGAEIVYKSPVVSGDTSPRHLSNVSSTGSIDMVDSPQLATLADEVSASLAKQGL
Summary of the method: (§2)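 scAb captured on flow cell 2 of an antibody-coated chip, flow cell 1 as reference; tau analyte injected 120 s association, 420 s dissociation, glycine pH 2.0 regeneration, in multi-cycle or single-cycle kinetics format. Responses fitted to a 1:1 binding model for kinetics and affinity.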

aggregated dGAE [5] = molecular target: T1, aggregated dGAE; assay: sandwich ELISA, Triton-treated aggregates titrated, S1D12 mAb capture
Description: as §1

tau fragment 186-350 = molecular target: T4, tau fragment 186-350 (human, UniProt P10636 503-667); assay: direct ELISA
T4 construct: also called m186-350
T4 sequence (P10636 503-667): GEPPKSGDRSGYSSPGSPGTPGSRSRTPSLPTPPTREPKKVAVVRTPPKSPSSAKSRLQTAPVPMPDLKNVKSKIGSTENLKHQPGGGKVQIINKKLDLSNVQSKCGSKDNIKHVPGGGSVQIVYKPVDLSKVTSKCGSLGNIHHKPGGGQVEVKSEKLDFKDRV

tau fragment 369-390 = molecular target: T5, tau fragment 369-390 (human); assay: direct ELISA
T5 peptide: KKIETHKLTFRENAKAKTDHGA

tau fragment 337-368 = tau fragment 337-368 (human); assay: direct ELISA
Sequence of tau fragment 337-368 (human) (peptide, as listed by the source): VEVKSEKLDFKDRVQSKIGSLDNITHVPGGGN

[6] = molecular target: T6, tau parent peptide 367-379 (GNKKIETHKLTFR) (human); assay: ELISA on biotinylated peptide over streptavidin
T6 peptide: Biotin-GNKKIETHKLTFR

dGA (tau 297-390) [7] = molecular target: T7, dGA (tau 297-390) (human, UniProt P10636 614-707); assay: SPR, scAb captured, tau analyte
Summary of the method: as §2
Target sequence in this assay (P10636 614-707 limits assumed): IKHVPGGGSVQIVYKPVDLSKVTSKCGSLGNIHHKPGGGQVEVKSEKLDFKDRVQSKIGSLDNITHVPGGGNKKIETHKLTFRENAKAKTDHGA

[8] = molecular target: T3, full length human tau protein 2N4R …; assay: SPR, scAb captured, tau analyte
Summary of the method: as §2

[9] = molecular target: T3, full length human tau protein 2N4R …; assay: sandwich ELISA, S1D12 mAb capture, scAb detection
Summary of the method: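 Read-out was HRP anti-HuCk with absorbance at 450 nm (positive above 0.3 after background subtraction) or chemiluminescence, including directly HRP-conjugated scAbs.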

tau fragment 369-391 = molecular target: T8, tau fragment 369-391 (human); assay: direct ELISA
T8 peptide: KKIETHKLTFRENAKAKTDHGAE

[10] = molecular target: T3, full length human tau protein 2N4R …; assay: Biacore
Summary of the method: as §2

[11] = molecular target: tau fragment 266-359 (R1-3) (human, UniProt P10636 583-676); assay: direct ELISA
Sequence of tau fragment 266-359 (R1-3) (P10636 583-676): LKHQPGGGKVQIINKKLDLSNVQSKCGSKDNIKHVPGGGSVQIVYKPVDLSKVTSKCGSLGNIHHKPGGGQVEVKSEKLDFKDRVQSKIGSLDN

[12] = molecular target: T3, full length human tau protein 2N4R …; assay: hT40 ELISA
dGAE (tau 297-391) [13] = molecular target: T2, dGAE (tau 297-391); assay: sandwich ELISA, 423 mAb capture, dGAE titrated, scAb at 10 µg/ml [D00041 Figure 34 cont. O]
[14] = molecular target: T9, tau parent peptide 355-367 (GSLDNITHVPGGG); assay: ELISA on biotinylated peptide over streptavidin
T9 peptide: Biotin-GSLDNITHVPGGG
Description: Briefly, 5 μg/ml streptavidin (Thermo Fisher) was adsorbed to Nunc 96-well MaxiSorp plates and following incubation at 37° C. for 1 h, the plates were washed as normal and blocked with 2% MPBS. N-terminally biotinylated peptides (Prolmmune Ltd) were added to the plates and incubated for 1 h at 37° C. Subsequently, test scAbs at starting concentrations of 100-500 nM was added and double diluted across the plate for each peptide and incubated for 1 h at 37° C. Rest of the ELISA was conducted as described above and the plates were read at absorbance 450 nm. Immunoreactivity of the scAb of interest was quantified as the % of scAb was bound for each peptide at a chosen concentration (FIG. 15-20).

dGAE (tau 297-391) [15] = molecular target: T2, dGAE (tau 297-391); assay: sandwich ELISA, 423 mAb capture, dGAE titrated, scAb at 10 µg/ml
dGAE (tau 297-391) [16] = molecular target: T2, dGAE (tau 297-391); assay: as above; remark: listed apart in the source
aggregated dGAE [17] = molecular target: T1, aggregated dGAE; assay: capture ELISA, mAb coated at 1 µg/ml, aggregates titrated, S1D12 scAb detection
[18] = molecular target: T10, human tau (hT40) with P301S and G335D of Line 66 mice (human, UniProt P10636 1-758); assay: Western blot
T10 construct: transgene product in brain homogenate or plasma; also called L66 human tau
T10 sequence (P10636 other isoform, or with tags, fused parts or gaps P301S G335D P301S G335D limits assumed): as the sequence (P10636 other isoform, or with tags, fused parts or gaps limits assumed) above, with P301S, G335D counted along it

[19] = molecular target: T3, full length human tau protein 2N4R …; assay: SPR, hT40 immobilised, mAb analyte
dGAE (tau 297-391) [20] = molecular target: T2, dGAE (tau 297-391); assay: direct ELISA
Description: (§3) A series of binding ELISA was performed using various truncated versions of the tau protein and 13mer peptide libraries spanning the entire hT40 molecule for mapping the epitopes of anti-tau scAbs (Full list of protein antigens used is given in Table 14). In general, ELISA plates were coated with 1 μg/ml hT40 or dGA or dGAE or other truncated versions of the protein and in the case of biotinylated peptides, plates were coated with 5 μg/ml Streptavidin followed by 1 μg/ml biotinylated peptide. The plates were blocked with 2% MPBS and scAb samples added at desired starting concentrations and double diluted across the plate. Binding was detected using anti-Human C Kappa HRP conjugated secondary antibody and the resulting immunoreaction was developed and absorbance values measured as described above.

dGA (tau 297-390) [21] = molecular target: T7, dGA (tau 297-390); assay: direct ELISA
Description: as §3

[22] = molecular target: T3, full length human tau protein 2N4R …; assay: direct ELISA
Description: as §3

B1: CA9 scAb (scFv, not shown: small tags and cut ends)
scFv: QVQLQESGPSLVKPSQTLSLTCTVSGFSLTSNSVGWVRQAPGKAPEWVAGIDTDGEEGYNPALNSRLSITRDTSKSQVSLSLSSVTSEDTAVYYCGRSYRSDGLAYGYVQAIDYWGPGLLVTVSSEGKSSGASGESKVDDQAVLTQPASVSGSLGQRVSITCSGSFIGISSVGWFQQLPGSGLRTIIVASDGRPSGVPDRFSMSKSGNTATLTISSLQAEDEADYFCGSSDRTQYTGVFGSGTRLTVLG
notes: scAb
With B1 the LoD (aggregated dGAE [1]) was 40 ng/mL, the “EC50 (read off the curve)” value (dGAE (tau 297-391) [2]) was ~0.2 µg/mL and the LoD (aggregated dGAE [3]) was 4 ng/mL.

B2: S1G2 scAb (scFv, not shown: small tags and cut ends)
scFv: B1 scFv with S101A, L144V, A148S, Q234P
notes: scAb
For B2, the Kd [4] was 0.17 nM, the LoD (aggregated dGAE [1]) was 16 ng/mL and the “EC50 (read off the curve)” value (aggregated dGAE [5]) was ~0.05 µg/mL. For the same binder, the binding result (tau fragment 186-350) was “no binding (tested: 25 ug/ml)”, the “EC50 (read off the curve)” value (tau fragment 369-390) was ~0.4 µg/mL and the binding result (tau fragment 337-368) was “no binding (tested: 25 ug/ml)”. For the same binder, the “EC50 (read off the curve)” value [6] was ~10 µg/mL, the Kd (dGA (tau 297-390) [7]) was 0.447 nM and the koff (dGA (tau 297-390) [7]) was 0.00035 s⁻¹. For the same binder, the kon (dGA (tau 297-390) [7]) was 783000 M⁻¹ s⁻¹, the Kd [8] was 0.17 nM and the koff [8] was 0.00018 s⁻¹. The kon [8] was 1.06e+06 M⁻¹ s⁻¹, the LoD chemiluminescence detection [9] was 0.12 ng/mL and the LoD colourimetric detection [9] was 2 ng/mL. For the same binder, the LoD (aggregated dGAE [3]) was 2 ng/mL, the “EC50 (read off the curve)” value (tau fragment 369-391) was ~0.5 µg/mL and the Kd [10] was 0.6 nM.

B3: CE3 scAb (scFv, not shown: small tags and cut ends)
scFv: QVRLQESGPSLVKPSQTLSVTCTVSGFSLISNAVGWVRQAPGKVPESLAGCSSDGKCYYNSALKSRLDITRDTSKNQISLSLSSVTTDDAAVYYCTRGYYPVYGYDYLGTIDYWGPGLLVTVSSEGKSSGASGESKVDDQAVLTQPSSVSGSLGQRVSITCSGSSSNVGRNDVAWFQQLPGSGLRTIIYGTTSRPSGIPDRFSGSKSGVTATLTIDSLQAEDEADYFCASGDSSAINDIFGSGTRLTVLG
notes: scAb
In the case of B3, the “EC50 (read off the curve)” value [11] is reported as ~0.3 µg/mL, the Kd [4] is reported as 3.79 nM and the “EC50 (read off the curve)” value [12] is reported as ~0.1 µg/mL. The “EC50 (read off the curve)” value (dGAE (tau 297-391) [13]) was ~0.3 µg/mL, the Kd [8] was 3.79 nM and the koff [8] was 0.000662 s⁻¹. For the same binder, the kon [8] was 174000 M⁻¹ s⁻¹.

B4: CA4 scAb (scFv, not shown: small tags and cut ends)
scFv: QVQLQESGPSLVKPSQTLSLTCTVSGFSLTSYSVYWVRQAPGQALEWISIMYASGRVDYNPALKSRLSITRDTSKSQFSLSLSSVTTEDTAVYYCTRGIENWGPGLLVTVSSEGKSSGASGESKVDDDIQVTQSPSSLSASLTERVSITCRTSQSVNNYLSWYQQKPGQAPKLLIYYATRLYTDVPSRFSGSGSGTDYTLTITSLEADDTATYYCLQYDSTPLAFGGGTNVEIK
notes: scAb
With B4 the Kd [4] was 3.61 nM, the Kd [8] was 3.61 nM and the koff [8] was 0.00165 s⁻¹. It also gave a kon [8] of 458000 M⁻¹ s⁻¹, a LoD chemiluminescence detection [9] of 0.37 ng/mL and a LoD colourimetric detection [9] of 6 ng/mL. For the same binder, the binding result [14] was “binds”, the “EC50 (read off the curve)” value (dGAE (tau 297-391) [15]) was ~0.3 µg/mL and the Kd [10] was 3.6 nM.

B5: CB3 scAb (scFv, not shown: small tags and cut ends)
scFv: QVQLQESGPSLVKPSQTLSLTCTVSGFSLSSVAVNWVRQAPGKVPEWLGGIISNGGTGYNPALKSRLSITRDTSKSQVSLALTHVTTEDTAVYYCGRGVEWEGSMDYLGPGLLVTVSSEGKSSGSGSETKVDDQSVLTQPSSVSGFLGQRVTITCSGSSSNVGAGSYVGWYQQVPGSGLRILIYGATKRASGLPDRFSGSRSGNTATLTISSLQAEDEADYYCVSYQTDFTLVFGSGTRLTVLG
notes: scAb
For B5, the “EC50 (read off the curve)” value (dGAE (tau 297-391) [16]) was ~0.4 µg/mL.

B6: S1G2 mAb (antibody, mouse IgG2a, V domains shown)
VH: QVQLQESGPSLVKPSQTLSLTCTVSGFSLTSNSVGWVRQAPGKAPEWVAGIDTDGEEGYNPALNSRLSITRDTSKSQVSLSLSSVTSEDTAVYYCGRSYRADGLAYGYVQAIDYWGPGLLVTVSS
VL: QAVVTQPSSVSGSLGQRVSITCSGSFIGISSVGWFQQLPGSGLRTIIVASDGRPSGVPDRFSMSKSGNTATLTISSLQAEDEADYFCGSSDRTPYTGVFGSGTRLTVLG
notes: sheep-mouse IgG2a chimeric mAb; also called S1G2 antibody
In the case of B6, the “EC50 (read off the curve)” value (aggregated dGAE [17]) is reported as ~30 nM, the binding result [18] is reported as “binds” and the Kd [19] is reported as 0.14 nM. For the same binder, the koff [19] was 4.75e-05 s⁻¹ and the kon [19] was 340000 M⁻¹ s⁻¹.

B7: E2B7 scAb (scFv, not shown: small tags and cut ends)
scFv: QVQLQESGPSLVKPSQTLSLTCTVSGFSLTSWGVAWVRQAPGKALEWLGTMRSGGGTEYNPALKSRLSITRDTSKSQVSLSLSSVTTEDMAMYYCARGYLSGIHYAWGRGLLVSVSSEGKSSGASGESKVDDQAVLTQLSSVSGSLGQRVSITCSGSSSNVGDGDYVGWFQQLPGSAPKLLIYSARNRASGVPDRFSGSRSGNTATLTITSLQAEDEADYYCASIDTSRSHIFGSGTRLTVLG
notes: scAb
With B7 the “EC50 (read off the curve)” value (dGAE (tau 297-391) [20]) was ~0.1 µg/mL, the binding result (dGA (tau 297-390) [21]) was “no binding (tested: 25 ug/ml)” and the binding result [22] was “no binding (tested: 25 ug/ml)”.
